Molecular target: N-peptide (RABV N protein, residues 363-414, [change]) (RABV)

“NiP-CTD (C-terminal domain of the P protein of rabies virus strain Nishigahara, residues 186-297, Cy (from UniProt Q9IPJ8 186-296)” showed a Kd of 88 µM.

Source: US20220177525A1
